Measured values: the supplement of paper PMC10126150
± gives the standard deviation of the averaged measurements.

test system: ATP; experiment: switch fluorescence ratio, 500 uM ATP over buffer (Cy3 cluster intensity, sum of 5 cycles each) (fold (ratio)); higher = stronger signal-on switching upon ATP binding; sequences stand for … in TCGTCGGCAGCGTCAGATGTGTATAAGAGACAGTTTTTTTTTTTTTTTTTTTTTTTTT…TC; conditions: aptamer strand: ATP DNA aptamer (quencher-CACCTGGGGGAGTATTGCGGAGGAAGG + anchor), 100 nM annealed; ATP concentration: 500 uM
Outline: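 Clusters with intensities outside 100-1000 RFU were excluded. The remaining Cy3-labelled switching-strand clusters on a modified Illumina MiSeq flow-cell had been annealed to 100 nM quencher-labelled ATP aptamer and imaged in selection buffer, then after 15 min with 500 uM ATP at 22 °C, for five cycles separated by NaOH stripping and re-annealing. The fluorescence ratio, averaged per switch-domain sequence, is each cluster's summed target-cycle Cy3 intensity over its summed buffer-cycle Cy3 intensity.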
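Note: ATP exposure 15 min at 22 °C before imaging.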

| Sequence | switch fluorescence ratio |
| --- | --- |
| TTTTTAGTGC | 1 ± 0.044 |
| TTTTTAGTTG | 1.12 ± 0.41 |
| TTTTTATAGC | 1.01 ± 0.044 |
| TTTTTATAT | 0.983 ± 0.031 |
| TTTTTATATT | 1.21 ± 0.44 |
| TTTTTATCA | 0.9798 ± 0.0082 |
| TTTTTATCAG | 0.977 ± 0.038 |
| TTTTTATGGA | 1.03 ± 0.027 |
| TTTTTATGGG | 1.03 ± 0.077 |
| TTTTTATTAA | 0.989 ± 0.033 |
| TTTTTATTG | 1.02 ± 0.018 |
| TTTTTCAGCC | 1.01 ± 0.046 |
| TTTTTCCCCT | 0.992 ± 0.023 |
| TTTTTCCGGC | 1.063 ± 0.0063 |
| TTTTTCGACG | 1.1 ± 0.21 |
| TTTTTCGTAT | 1.04 ± 0.044 |
| TTTTTCTAAC | 0.996 ± 0.016 |
| TTTTTCTATA | 0.994 ± 0.066 |
| TTTTTCTATG | 0.983 ± 0.05 |
| TTTTTCTCTT | 0.996 ± 0.021 |
| TTTTTCTGGA | 0.993 ± 0.021 |
| TTTTTCTTAT | 1 ± 0.041 |
| TTTTTGAACT | 1.01 ± 0.037 |

| Sequence | switch fluorescence ratio |
| --- | --- |
| TTTTTGAAGA | 0.986 ± 0.046 |
| TTTTTGAGGG | 1.01 ± 0.04 |
| TTTTTGAGGT | 1 ± 0.025 |
| TTTTTGAGTT | 0.977 ± 0.032 |
| TTTTTGCGAT | 0.9982 ± 0.0046 |
| TTTTTGCGTC | 1.03 ± 0.059 |
| TTTTTGGAAC | 1.01 ± 0.023 |
| TTTTTGGAGC | 1.01 ± 0.016 |
| TTTTTGGGGC | 1.03 ± 0.072 |
| TTTTTGGTGC | 1.04 ± 0.03 |
| TTTTTGTATG | 1.02 ± 0.034 |
| TTTTTGTCAT | 0.9912 ± 0.0094 |
| TTTTTGTCGG | 0.996 ± 0.026 |
| TTTTTGTGCT | 0.996 ± 0.032 |
| TTTTTGTTAA | 1.01 ± 0.013 |
| TTTTTGTTCC | 1.08 ± 0.1 |
| TTTTTGTTTG | 0.985 ± 0.029 |
| TTTTTTAAAC | 0.996 ± 0.013 |
| TTTTTTAAGT | 0.995 ± 0.024 |
| TTTTTTAATG | 1 ± 0.033 |
| TTTTTTATGA | 1.03 ± 0.027 |
| TTTTTTATTC | 1.15 ± 0.29 |
| TTTTTTATTT | 0.996 ± 0.025 |

| Sequence | switch fluorescence ratio |
| --- | --- |
| TTTTTTCAGG | 1.03 ± 0.027 |
| TTTTTTCCCG | 1.09 ± 0.11 |
| TTTTTTCCGG | 1.21 ± 0.17 |
| TTTTTTCCGT | 1.07 ± 0.16 |
| TTTTTTCCTG | 0.989 ± 0.011 |
| TTTTTTCGTT | 0.988 ± 0.022 |
| TTTTTTCTGG | 1 ± 0.091 |
| TTTTTTCTTC | 1.04 ± 0.011 |
| TTTTTTGCCG | 1.05 ± 0.14 |
| TTTTTTGCGA | 1.06 ± 0.079 |
| TTTTTTGCGC | 1.19 ± 0.29 |
| TTTTTTGCGT | 0.987 ± 0.047 |
| TTTTTTGCTC | 1.02 ± 0.033 |
| TTTTTTGGTA | 1.01 ± 0.036 |
| TTTTTTGGTC | 1.03 ± 0.037 |
| TTTTTTTACG | 1.06 ± 0.041 |
| TTTTTTTAGC | 1.03 ± 0.064 |
| TTTTTTTCAA | 1.01 ± 0.02 |
| TTTTTTTGAA | 0.979 ± 0.02 |
| TTTTTTTGAC | 1.01 ± 0.038 |
| TTTTTTTGGT | 0.996 ± 0.028 |
| TTTTTTTTCT | 1.02 ± 0.067 |
